Measured values published in article PMC6182170.
Where a chain is given by its changes, count along the chain named. pKd: −log10 of the molar value.

Tests used:
Experiment in all cases: EMSA
Details in all cases: EMSA: 20 pM dsRNA, 50 mM KCl, 10 mM Tris-HCl pH 8.0, 10% glycerol, 1 mM MgCl2, 0.5 mM DTT, on ice 30 min; native 6% gel, 0.5x TBE, 4 C
[1] = target: ADR-1 WT;ADR-2 WT (Caenorhabditis elegans;Caenorhabditis elegans) (UniProt Q9U3D6+Q22618)
[2] = target: T1, ADR-1 dsRBD1 mutant (ds1) K223E;K224A;K227A (Caenorhabditis elegans) (UniProt Q9U3D6)
T1 sequence: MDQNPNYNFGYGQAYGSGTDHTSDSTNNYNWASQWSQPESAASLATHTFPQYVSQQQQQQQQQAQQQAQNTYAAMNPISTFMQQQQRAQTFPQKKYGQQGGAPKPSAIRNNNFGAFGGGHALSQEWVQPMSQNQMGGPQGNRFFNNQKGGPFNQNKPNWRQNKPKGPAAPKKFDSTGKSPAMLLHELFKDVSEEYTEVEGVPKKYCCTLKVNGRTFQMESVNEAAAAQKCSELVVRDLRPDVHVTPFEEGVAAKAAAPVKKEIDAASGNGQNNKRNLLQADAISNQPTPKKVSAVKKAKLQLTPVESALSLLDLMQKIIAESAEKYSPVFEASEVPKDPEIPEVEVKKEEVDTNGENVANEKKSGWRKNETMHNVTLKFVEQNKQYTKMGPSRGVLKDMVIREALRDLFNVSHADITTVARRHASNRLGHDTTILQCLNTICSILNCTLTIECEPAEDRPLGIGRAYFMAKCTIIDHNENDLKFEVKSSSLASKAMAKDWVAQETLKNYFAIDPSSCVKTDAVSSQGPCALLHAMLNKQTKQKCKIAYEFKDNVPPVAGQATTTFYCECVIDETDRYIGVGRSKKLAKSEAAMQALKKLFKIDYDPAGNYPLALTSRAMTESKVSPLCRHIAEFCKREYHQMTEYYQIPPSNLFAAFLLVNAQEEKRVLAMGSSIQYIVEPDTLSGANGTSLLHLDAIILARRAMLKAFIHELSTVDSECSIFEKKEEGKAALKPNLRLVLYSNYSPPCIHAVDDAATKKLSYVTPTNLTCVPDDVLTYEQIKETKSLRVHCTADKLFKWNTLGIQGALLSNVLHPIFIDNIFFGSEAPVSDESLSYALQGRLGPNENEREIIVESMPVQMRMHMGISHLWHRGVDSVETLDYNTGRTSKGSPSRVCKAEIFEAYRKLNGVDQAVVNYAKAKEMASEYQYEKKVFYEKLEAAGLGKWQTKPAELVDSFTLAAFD

[3] = target: T2, ADR-1 dsRBD2 mutant (ds2) K584E;K585A;K588A (Caenorhabditis elegans) (UniProt Q9U3D6)
T2 sequence: T1 sequence with E223K, A224K, A227K, K584E, K585A, K588A

Sequence of ADR-1 WT;ADR-2 WT (Caenorhabditis elegans;Caenorhabditis elegans) (Q22618 whole entry, one chain of several): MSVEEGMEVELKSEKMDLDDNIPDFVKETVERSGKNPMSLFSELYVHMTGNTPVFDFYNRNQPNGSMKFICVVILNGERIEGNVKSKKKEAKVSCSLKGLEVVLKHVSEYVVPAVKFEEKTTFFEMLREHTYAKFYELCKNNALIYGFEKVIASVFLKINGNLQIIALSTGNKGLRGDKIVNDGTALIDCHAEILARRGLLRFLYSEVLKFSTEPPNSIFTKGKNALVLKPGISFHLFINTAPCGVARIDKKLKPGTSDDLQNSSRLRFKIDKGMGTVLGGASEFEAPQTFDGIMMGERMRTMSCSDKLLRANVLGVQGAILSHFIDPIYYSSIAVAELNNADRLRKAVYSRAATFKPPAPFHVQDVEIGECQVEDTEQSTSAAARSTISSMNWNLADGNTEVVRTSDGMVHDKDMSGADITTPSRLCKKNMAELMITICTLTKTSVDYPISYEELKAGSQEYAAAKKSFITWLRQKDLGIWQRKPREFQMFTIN

UUAUUAGGUCGGCAAAUAAUUAUUGACGUGUUUUGCCAAUUAACGAUUUUUUGUAAAUUUUAUAUGUGUCUCUUACAGUAAACCGAGAGUGUAUAAAAGCAUAUGAAUAUCAGUUGCUUUGGUCAUCUGAGUAGUAAUACGAUUCGAAAAAAUCGAAAAGUUUUUUUUCCAAUUUUUUGAGUUAGCCGUGAGAGUUG / CAACUCUUCACAGCUAACUCAAAAAAUCGCGAAAAGCAUUUUUCAAAAAAUUUUUGAUUUUUUAGAUUCUUAAUACUACGCAGGUAGCCAAAGUAGCUGAUAUUUUUAUGUUUUCAUACAUUCACAUUUUACUAUAAGACACACAUACAAAAUUUACAAAAAUUGUUAAUUGACAAAAUACGUCAAUAAUUAUUUGUCUACCUAAUAA [lam-2 3'UTR 200 bp dsRNA]
pKd [1]: 8.82
pKd [2]: 8.83
pKd [3]: 9.02
